This note sets out measurements from publication PMC7870846, “Incorporation of sensing modalities into de novo designed fluorescence-activating proteins” (Nature Communications, 2021).

One data set can be described thus: Circular dichroism. The class given is physicochemical. The following applies: absence of DFHBI. The method, then:
Circular dichroism (CD) measurements were recorded at 25 °C in a 1 mm cuvette on an AVIV model 420 CD spectrometer (Biomedical, Inc.). mFAP2 and mFAP2.1 were purified by large-scale protein purification and SEC purification[49] in phosphate-buffered saline (PBS) (25.0 mM phosphate, 150 mM NaCl, pH 7.40), and far-ultraviolet CD wavelength scans recorded from 195 nm to 260 nm. mFAP2 was measured at 0.441 mg mL^−1 and mFAP2.1 at 0.500 mg mL^−1 in Na2HPO4-citrate buffer with pH adjusted to 7.75, 3.96, or 2.93 using NaOH and HCl. The reported data was background-subtracted using buffer only contols (Supplementary Fig. 1b, c).

The nature of data set [1]: pH-sensitivity of β-barrel variants (fluorescence ratio fold-change pH 3.66-7.36). The data set is classed as biochemical. The method, then: In measuring pH-sensitivity of β-barrel variants (Supplementary Fig. 1f) in technical triplicate, 140 μL of Na2HPO4-citrate (pH 7.36 or 3.66) supplemented with 150 mM NaCl and 1.43 μM DFHBI was combined with 10.0 μL of small-scale purified protein[49] for a final concentration of 1.33 μM DFHBI. Fluorescence endpoints were measured by exciting at λex = 387 nm or λex = 483 nm and measuring fluorescence emission at λem = 501 nm or λem = 504 nm, respectively. Without background subtraction, the fluorescence ratio fold-change from pH 3.66–7.36 was calculated as:2 FluorescenceRatioFold-ChangepH3.66-7.36=FpH3.66λex=387nm,λem=501nm/FpH3.66λex=483nm,λem=504nm/FpH7.36λex=387nm,λem=501nm/FpH7.36λex=483nm,λem=504nm, where FpHλex,λem is the mean of three technical replicates of endpoint fluorescence measurements at the subscripted pH value and superscripted fluorescence excitation (λex) and fluorescence emission (λem) wavelengths.

A short description of data set [2]: Ca2+-responsive mFAP Ca2+ titrations. The data set is classed as binding. As to the method: In measuring Ca^2+ affinity of mFAPs on a Synergy Neo2 hybrid multi-mode reader (Fig. 4d, e, f and Supplementary Figs. 10c, f, i, 11c, f, i, 13c, f, i, 16b), large-scale purified proteins[49] were aliquoted in technical triplicate to a final concentration of 500 nM with 5.00 μM DFHBI in eleven serial dilutions ( 10 dilution factor) of CaCl2 (Sigma Aldrich) starting from either 900 mM or 90.0 mM CaCl2 (diluted using high-salt Tev cleavage buffer) including a twelfth condition without CaCl2. Final volumes were 200 μL in flat bottom, black polystyrene, non-binding surface 96-well microplates (Corning 3650). Fluorescence endpoints were measured using excitation wavelength λex = 484 nm and emission wavelength λem = 508 nm. Background fluorescence endpoints of wells with identical chromophore and CaCl2 concentrations lacking protein (substituted for equivalent volumes of high-salt Tev cleavage buffer) were measured in technical triplicate, averaged per condition, and subtracted from protein measurement averages of the same conditions.
For Ca^2+ titrations of EF4n_mFAP2a and EF4n_mFAP2b (Supplementary Fig. 13c), a small amount of Chelex 100 sodium form (Sigma Aldrich) was added to purified protein (produced by large-scale protein purification and SEC purification[49]) and nutated at 4 °C overnight. EF4n_mFAP2a was aliquoted in technical triplicate to a final concentration of 8.00 μM with 80.0 μM DFHBI and EF4n_mFAP2b was aliquoted in technical triplicate to a final concentration of 6.25 μM with 43.4 μM DFHBI, in eleven serial dilutions ( 10 dilution factor) of CaCl2 starting from 9.00 mM or 4.00 mM CaCl2 (diluted using high-salt Tev cleavage buffer pre-treated with Chelex 100) including a twelfth condition without CaCl2. Final volumes were 25.0 μL in flat bottom, black polystyrene, non-binding surface 96-well half-area microplates (Corning 3686) or 200 μL in flat bottom, black polystyrene, non-binding surface 96-well microplates (Corning 3650). Fluorescence endpoints were measured for EF4n_mFAP2a using excitation wavelength λex = 478 nm and emission wavelength λem = 520 nm, and for EF4n_mFAP2b using excitation wavelength λex = 484 nm and emission wavelength λem = 508 nm. Background fluorescence endpoints of wells with identical chromophore and CaCl2 concentrations lacking protein (substituted for equivalent volumes of high-salt Tev cleavage buffer) were measured in technical triplicate, averaged per condition, and subtracted from protein measurement averages of the same conditions. For non-linear least squares fitting to obtain Kd values, means were fit to a single-binding site isotherm function where Ca^2+-binding sites were modeled independently with a Hill coefficient of 1.

In data set [3] the test system is human induced pluripotent stem cell (hiPSC)-derived cardiomyocytes. The experiment in a line: Contraction and SR Ca2+ transient imaging of cardiomyocytes. The data set is classed as cell-based. The following applies: SR-targeted; image acquisition ~16.7 Hz. As to the method:
hiPSC culture and cardiomyocyte differentiation: Undifferentiated IMR90 human induced pluripotent stem cells (hiPSCs) (WiCell) were maintained in mTeSR-1 (StemCell Technologies) on tissue culture plastic coated with Matrigel diluted 1:60 (Corning) at 37 °C and 5% CO2. Cardiomyocytes were differentiated using a monolayer-based directed differentiation protocol. hiPSCs were dissociated into a single cell suspension using Versene (Life Technologies) and plated at a high density (1.5–2.5·10^5 cells cm^−2) in mTeSR containing 10 µM Y-27632 ROCK inhibitor onto Matrigel-coated plates. Twenty-four hours after plating, media was replaced with fresh mTeSR. […]
Contraction and SR Ca^2+ transient imaging: Leica DMI8 microscope controlled by MetaMorph Imaging software was used to image contraction and Ca^2+ transients of the SR in CMs. […] For mapping contraction, three different ROI traces were hand-drawn, and displacement of cells were measured in the fluorescence channel. […] In order to quantify tissue-level Ca^2+ fluxes during cardiac contraction cycling, fluorescence fold-change over the whole field of view was calculated for each frame then temporally matched with contraction data. Fluorescence fold-change in each frame was calculated by Eq. (11) where F is the fluorescence per frame, and F0 is the fluorescence of the frame with the minimum fluorescence (Fig. 5f and Supplementary Fig. 19b). […]

The nature of data set [4]: Fluorescence intensity of circularly permuted mFAP2a variants. The class given is biochemical. The following applies: equimolar concentration. As to the method: To measure the fluorescence intensities of circularly permuted mFAP2a variants (Supplementary Fig. 22b, d), fluorescence endpoints were measured on a Synergy Neo2 hybrid multi-mode reader (BioTek) in flat bottom, black polystyrene, non-binding surface 96-well microplates (Corning 3650) or half-area microplates (Corning 3686). Fluorescence endpoints were measured in technical triplicate by exciting at λex = 488 nm and measuring fluorescence emission at λem = 510 nm (Supplementary Fig. 22b), or exciting at λex = 468 nm and measuring fluorescence emission at λem = 530 nm (Supplementary Fig. 22d). […]

B1: mFAP2.1: mFAP2 mutational variant (protein)
chain: SRAAQLLPGTWQVTMTNEDGQTSQGQMHFQPRSPYTMDVVAQGTISDGRTIVGYGKVTVKTPDTLDVDITYPSLGNIKAQGQITMDSPTQFKFDATTKGAGNFTGRLTGTLQRQE
As to B1, in the data set “Circular dichroism”, the “stability by circular dichroism compared to mFAP2” value was “improved stability at pH 2.93”.

B2: mFAP2.2: most pH-responsive mutant of SDM library (protein)
chain: SRAAQLLPGTWQVTMTNEDGQTSQGQMHFQPRSPYTMDVVAQGTISDGRPIVGYGKVTVKTPDTLDVDITYPSLGNIKAQGQITMDSPTQFKFDATTKGAGNFTGRLTGTLQRQE
Take B2: the “fluorescence ratio fold-change from pH 3.66–7.36, higher than mFAP2.1” value in data set [1] is reported as ~ 1.3 fold.

B3: EF1n_mFAP2b: negatively allosteric Ca2+-responsive mFAP, one EF-hand motif (protein)
chain: SRAAQLLPGTWQVTMTNEDGQTSQGQWHFQPRSPYTMDIVAQGTISDGRPIVGYGKATVKTPDTLDIDITYPSLGNIKAQGQITMDSPTQFKWDAHVDKDGDGYISAAEAAAQTKILTGTLQRQE
The Kd is the concentration at which binding is half-saturated. For the molecule B3, in data set [2] (Ca2+ titration with excess DFHBI), the “Ca2+-responsiveness / allostery between DFHBI and Ca2+ binding” value was “negative allostery”. For the same molecule, the Kd in data set [2] (excess DFHBI compared to protein, Hill coefficient of 1) was found to be 260 µM. The “response time to Ca2+ fluxes” value in data set [3] is given as “less than 60 ms”.

B4: cp35-34_mFAP2a_12: brightest cpmFAP tested, de novo designed α-helical linker (protein)
chain: QEMDIVAQGTISDGRPIVGYGKATVKTPDTLDIDITYPSLGNIKAQGQITMDSPTQFKWDATTKGENDFHGRLTGTLQRTEEAKEATEEARRRGITTQAAQLLPGTWQATFTNEDGQTSQGQWHFQPRDG
Regarding B4, the “fluorescence intensity relative to mFAP2a” value in data set [4] is listed as ~ 93%.
